Publication PMC5518211 (Journal of Molecular Recognition, 2017)
Where two headings read alike, the source gives them in different places. Ends that are not written are not given here.

How the values were obtained:
Test in all cases: SPR
Calmodulin [1] = target: T1, Calmodulin ( (human brain CaM or …, UniProt P0DP23 1-149))
Calmodulin [2] = target: T1, Calmodulin; remark: listed apart in the source
Calmodulin [3] = target: T1, Calmodulin; remark: listed apart in the source
Calmodulin [4] = target: T1, Calmodulin; remark: listed apart in the source

Kd (Calmodulin [1])	koff (Calmodulin [1])	kon (Calmodulin [1])	Kd (Calmodulin [2])	koff (Calmodulin [3])	kon (Calmodulin [3])	Kd (Calmodulin [4])	Binder
480 nM	0.16 s⁻¹	340000 M⁻¹ s⁻¹	19000 nM				Full-length recombinant human neurogranin with a His-tag at the N-terminus (natural protein) MDCCTENACSKPDDDILDIPLDDPGANAAAAKIQASFRGHMARKKIKSGERGRKGPGPGGPGGAGVARGGAGGGPSGD
				~1 s⁻¹	~1e+09 M⁻¹ s⁻¹	7.1 nM	LKKFNARRKLKGAILTTMLA (not fully specified) [Peptide corresponding to the CaM-binding region of CaMKIIα (CaMKII 290-309)]
